Experimental data published in FireProtDB (doi:10.1021/bi012042l).

Conditions: Rattus norvegicus; pH 7.3; 20 °C; GdnHCl; Fluorescence; potassium phosphate 20 mM; whole UniProt chain shown

B1: Fatty acid-binding protein, intestinal wild type, P02693 (protein)
chain: MAFDGTWKVDRNENYEKFMEKMGINVVKRKLGAHDNLKLTITQEGNKFTVKESSNFRNIDVVFELGVDFAYSLADGTELTGTWTMEGNKLVGKFKRVDNGKELIAVREISGNELIQTYTYEGVEAKRIFKKE
denaturant midpoint (higher = more stable): 1.4 M | unfolding free energy: 5 kcal/mol
